Reference: patent US20260266838

Molecular target: T1, Recombinant CC16 (uteroglobin SCGB1A1), P11684
T1 chain: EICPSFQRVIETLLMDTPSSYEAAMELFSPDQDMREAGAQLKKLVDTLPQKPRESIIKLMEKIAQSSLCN

B1: native human neutrophil elastase (protein)
chain: IVGGRRARPHAWPFMVSLQLRGGHFCGATLIAPNFVMSAAHCVANVNVRAVRVVLGAHNLSRREPTRQVFAVQRIFENGYDPVNLLNDIVILQLNGSATINANVQVAQLPAQGRRLGNGVQCLAMGWGLLGRNRGIASVLQELNVTVVTSLCRRSNVCTLVRGRQAGVCFGDSGSPLVCNGLIHGIASFVRGGCASGLYPDAFAPVAQFVNWIDSIIQ
in vitro cleavage (mass spectrometry of fragments): two peptides with unique amino acid sequences released from HNE-mediated cleavage of CC16 in vitro
